Assay results: US12385058B2, “Herbicide tolerance protein, encoding gene thereof and use thereof” (Beijing Dabeinong Biotechnology Co., Ltd., priority 2018, dated 2025)

System: soybean plants
Assay: Herbicide tolerance of transgenic soybean T1 plants (spraying, damage degree)
Assay type: in vivo
Details: sprayed with tribenuron-methyl 144 g ai/ha, eight-fold field concentration
Procedure: The degree of damage caused by the herbicide was measured for each plant according to the leaf curl degree and the growth point damage degree 3 days after spraying (3 DAT), 7 days after spraying (7 DAT), 14 days after spraying (14 DAT) and 21 days after spraying (21 DAT): the case where the leaves are flat as untreated plants and the growth points are intact is defined as having a damage degree of 0%; the case where veins are locally browned, new leaves are malformed and plant growth is slow is defined as having a damage degree of 50%; and the case where veins are purple, until the whole plant is dead and the growth points are browned and dry is defined as having a damage degree of 100%. The soybean plants into which the ALT02M1-01 nucleotide sequence was introduced were of three strains in total (S1, S2 and S3), the soybean plants into which the ALT02M2-01 nucleotide sequence was introduced were of three strains in total (S4, S5 and S6), the soybean plants into which the ALT02M3-01 nucleotide sequence was introduced were of three strains in total (S7, S8 and S9), the soybean plants into which the ALT02-01 nucleotide sequence was introduced were of three strains in total (S10, S11 and S12), the control soybean plants were of two strains in total (S13 and S14), and the wild-type soybean plants were of one strain in total (CK1); and 10-15 plants were selected from each strain and tested.

B1: ALT02M1-01: nucleotide sequence SEQ ID NO: 25 encoding ALT02M1, based on soybean codon usage bias (nucleic acid)
DNA: ATGGAGACTGATAACGTGGAACTCGCCCAATCTAAGAGAAAGGTGGTGCTGGCTGAACAAGGGTCATTTTACATAGGGGGTAGGACTGTTACTGGTCCTGGCAAGTTTGATCCATCCAAACCTGTGATACCCTACAGTAACGAAGGAGCAACATTCTATATTAACCAAATGTATGTTAACTTCCAGGCCCCAGTGAGACCTAGGGGACTTCCATTGGTTTTCTGGCATGGAGGTGGCTTGACTGGTCACATCTGGGAGTCTACACCTGACGGCAGACCCGGGTTTCAAACCCTCTTCGTTCAGGATAGGCATACCGTGTACACTATTGACCAACCTGGGAGAGGAAGGGGTAACATCCCAACTTTTAACGGACCTTTCGGACAGTTGGAGGAAGAGAGTATTGTTAACACTGTGACAGCCAATTCTTCAAAGGAAGGTGCCTGGGTGAGAGATAGGCTTGGCCCTGCTCCCGGGCAATTTTTCGAGAACTCTCAGTTTCCTAGAGGCTATGAAGACAATTACTTTAAGGAGATGGGATTCAGCCCATCTATATCCAGTGATGAAATTGTTGACGCTGTTGTGAAACTCGTGACCCATATTGGTCCTTGTGTTCTGGTGACTCACTCAGCATCCGGCGTTCTTGGGATGAGAGTGGCTACACACGCAAAGAATGTTAGGGGAATTGTGGCCTATGAACCAGCTACCTCAATCTTCCCCAAGGGAAAAGTTCCAGAGATACCACCTCTCGCTGATAAGAAAAGCCAAATCTTTCCCCCATTCGAAATACAGGAGTCTTACTTTAAGAAACTTGCCAAGATTCCAATCCAATTTGTTTTCGGAGATAACATCCCCAAGAATCCAAAATCAGCATATTGGTTCCTGGACTGGTGGAGAGTGACAAGATACGCACATAGTCTCAGCCTGGAGGCCATAAACAAATTGGGGGGACAAGCTTCCCTTTTGGATCTTCCTACTGCAGGATTGAGAGGTAATACACACTTTCCCTTCACCGATAGGAACAATGTTCAGGTGGCTTCTCTCCTGTCAGACTTTCTGGGTAAACACGGTCTGGATCAAAATGAGAGCAAACTCGCCGCCGCCCTGGAATGA
modifications: the ALT02M1-01 nucleotide sequence encoding the amino acid sequence corresponding to the herbicide tolerant protein ALT02M1 and based on the soybean codon usage bias
herbicide tolerance compared with soybean plants into which ALT02-01 was introduced: significantly increased tolerance to benzenesulfonic acid | herbicide tolerance imparted to transgenic soybean plants: impart transgenic soybean plants with the tolerance to benzenesulfonic acid
